# Reference: the supplement of paper PMC9732359
# ± gives the uncertainty stated by the source.
# Test: protein stability index of a GFP-peptide fusion (yeast GPS) (PSI 1-4); higher = more stable; sorted into four equal gates, so the index is relative within each strain
# Settings: doa10∆
# Summary of the method: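 Yeast carrying a pooled library were grown to mid-log phase in leucine-free medium. Each library plasmid expresses Cherry and has a tiled 17-residue yeast protein peptide fused downstream of GFP. Cells were sorted into four equal gates by GFP/Cherry ratio, and plasmids from each gate were PCR-amplified, Illumina-sequenced and assigned to strains by barcode. Summing, across gates, the read frequency times the gate number gave each peptide's protein stability index.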
row,Sequence,protein stability index
1,ENDNLDNVSKNALDKLR [YCG1],3.29 ± 0.099
2,ENELVITSIPKPLTENC [RMP1],3.42 ± 0.14
3,ENENILIKAKNFLVFQG [SMC1],1.22 ± 0.094
4,ENIIQRLQAANSMEYTG [CDC53],1.94 ± 0.065
5,ENIPVALCKNRKCQFRT [POP1],2.46 ± 0.048
6,ENITNKVTEKVLTQLTA [CSI1],2.62 ± 0.051
7,ENLEESFLSKHALYLAP [SSN2],3.12 ± 0.056
8,ENSANSTVASALDTNGT [SIR4],3.08 ± 0.097
9,ENVEKKEAALKTMIKTI [SMC2],1.93 ± 0.058
10,EPAEANEENDLDVDPAK [RPB2],3.3 ± 0.18
11,EPDRDENWIHVSCLSFM [LIN1],3.12 ± 0.051
12,EPFFLVTKITDMLLHKY [SRB8],2.86 ± 0.11
13,EPIKVNVRVGQAVETVG [RPN1],1.41 ± 0.16
14,EPLAPGNDNLIKAPTVA [YLR335W/NUP2],2.57 ± 0.067
15,EPLTEIKNVIVSNRVAA [RPP0],1.6 ± 0.076
16,EPMKQLNATKISPSAPS [YAR002W/NUP60],2.73 ± 0.075
17,EPSDLRSWTLTSEMKVL [YGL100W/SEH1],2.92 ± 0.049
18,EPYVAYGYPSYSTIRQL [RPL7A],1.87 ± 0.044
19,EQDILDLIAEQVVTDYN [SSN2],3 ± 0.17
20,EQDPYSNASQMGNTGSG [RPB3],2.7 ± 0.13
21,EQGIELEHIDSKSEFAH [FAS2],2.88 ± 0.096
22,EQRHLKRELKRAQEEVK [RPT3],3.13 ± 0.077
23,ERAELETDEYISYTSHI [RPN1],3.14 ± 0.071
24,ERNEQEREIMNDHSKSA [SWI3],3.27 ± 0.069
25,ERPPLLPILPIQRLRLL [YOR098C/NUP1],1.34 ± 0.1
26,ERQQENLLIQRLNFNQN [SWI3],3.26 ± 0.071

row,Sequence,protein stability index
1,ERRMQVTAEDFKQAKER [RPT2],3.02 ± 0.1
2,ERSLAVKYINFGKTVKD [RPC31],3.09 ± 0.088
3,ERSLRQKYNLLHVLPTL [SNM1],1.22 ± 0.07
4,ERTKLQEHTIFTQLKKN [SNU114],1.46 ± 0.057
5,ESAAVYNGRGARERKTA [SNF2],2.55 ± 0.067
6,ESELSLLEETQAKLKKN [SMC4],2.7 ± 0.17
7,ESFESYHNLTTHNSYEK [RPN6],3.19 ± 0.068
8,ESGEDEAEFSLRELSCC [RRP46],3.24 ± 0.05
9,ESGLRPVSLLNSQLVGK [PCI8],3.31 ± 0.13
10,ESGLVNADLDVKDELMF [RPO21],3.16 ± 0.059
11,ESISQTPISNEQTEGEP [SRP68],3.21 ± 0.1
12,ESLQKRELLKSQVEDFT [SIR3],3.15 ± 0.045
13,ESLSEEHASLLVRDSKP [MED8],2.53 ± 0.084
14,ESNNKKYPIFTGESWVK [YDL088C/ASM4],2.73 ± 0.062
15,ETDGKHGKRRSQVVETH [YMR129W/POM152],3.27 ± 0.11
16,ETEKFALERNWPIVNSK [RPN12],3.19 ± 0.095
17,ETERLISQSQLGKFKNI [SIN4],3.09 ± 0.13
18,ETHPDNSNKQAVAILAD [BRR2],2.78 ± 0.053
19,ETIQADLNHVTEELQTQ [SMC2],3.21 ± 0.14
20,ETLGDILKRDFELVSDL [ECM29],3.27 ± 0.14
21,ETLNDTIERSLIEEEVE [YCS4],3.42 ± 0.14
22,ETPKSNNSLSYHSGRLL [ITC1],3.22 ± 0.14
23,ETPNQDATYDSALELVG [RPN6],2.62 ± 0.088
24,ETQPGCNEEQTLEAKIG [RPO31],3.21 ± 0.073
25,ETSSFGSMFSGDNTSDV [RRI1],3.48 ± 0.11
26,ETTTQFKATHILDFGPG [FAS1],2.44 ± 0.081

row,Sequence,protein stability index
1,ETYVASYVVPRLYLKDQ [ECM29],2.46 ± 0.1
2,EVCAKMPNIELYLKVIP [SSN2],2.71 ± 0.047
3,EVDSASDFISKLEYPHT [RPN3],2.96 ± 0.087
4,EVEEDDEDDDQPMISPD [SWI3],3.21 ± 0.099
5,EVGMKVQSGQIYINKSV [RET1],2.83 ± 0.074
6,EVLCSRIIEKSVRRSGA [RRP45],2.38 ± 0.066
7,EVLLAGFGRKGKAKGDI [RPS23A],3.41 ± 0.099
8,EVRDATLNNIFRFDSIQ [GRR1],3.18 ± 0.26
9,EVRILPRQRMEEVVSND [PRP8],2.52 ± 0.11
10,EVRQETQPKAEATQDDD [NUT1],3.08 ± 0.13
11,EVSMNSIFAMGLCGAGT [RPN1],1.68 ± 0.047
12,EVSQFLIENGASVRIKD [NAS6],3.08 ± 0.21
13,EVVSEAINIMNRSNDAL [FAS2],3.32 ± 0.12
14,EVWSVSWNLTGTILSSA [YGL100W/SEH1],1.7 ± 0.07
15,EVYRTSLNTKKNEKLIL [SMC3],1.75 ± 0.082
16,EVYTLVDSQGLPYNWDA [ARP7],3.31 ± 0.2
17,EWDMLNVEEEQIVPYIE [BRR2],3.2 ± 0.17
18,EWKSNHKKKRSNAAGAD [SRB8],1.33 ± 0.13
19,EYEEWQKSVSLLSSESN [YDL116W/NUP84],2.93 ± 0.055
20,FCGKKTVKRGAAGIWTC [RPL43A],1.79 ± 0.072
21,FDDACNQIWNIALNLAS [SSN2],3.01 ± 0.15
22,FDDIFQVSEVDPGRYNK [RPB8],3.06 ± 0.14
23,FDKDLERDTFSDFTFPE [DIS3],2.11 ± 0.15
24,FDKKSFFNGKALNNAIP [PRP8],2.06 ± 0.08
25,FDNKSTSEEQEALLRSL [SNF2],3.32 ± 0.072
26,FEGNVATKAINGCIFTL [PRP8],2.57 ± 0.068

row,Sequence,protein stability index
1,FEIDGDVIHFEDSSILQ [PCI8],3.15 ± 0.083
2,FELIELVTPKSFLFDVL [NUT1],1.92 ± 0.25
3,FERIMILDPQVTRFTTW [YJL039C/NUP192],1.06 ± 0.077
4,FERLVPRGTAKLIIHRK [SMC3],3.01 ± 0.12
5,FESSSSLPFLLRHMPLA [SSN2],2.17 ± 0.16
6,FETETEVTFKNANIFSS [FAS1],3.15 ± 0.042
7,FEWDISNSDNCPEEFAE [SNF5],3.12 ± 0.11
8,FFEMLISKSLTFSQESG [RRI2],2.12 ± 0.082
9,FFLRDTLLWNKNDKLIK [SNF5],2.4 ± 0.062
10,FFLSIYFFYASRPEYSC [YJL039C/NUP192],1.41 ± 0.056
11,FFTIDHFIQKLHTARKI [SIR2],1.75 ± 0.09
12,FFYNISSIHWNNWFSLP [SIN4],2.09 ± 0.036
13,FGHIDLAKPVFHVGFIA [RPO21],2.37 ± 0.072
14,FGIYILTQGINGKEVPL [MED1],1.48 ± 0.1
15,FGKTGDQKETKKGESEK [YOR098C/NUP1],3.4 ± 0.1
16,FHIACSVGNLEVVKSLY [NAS6],2.08 ± 0.078
17,FHIGYFKATIQILQGIC [RPO31],1.39 ± 0.042
18,FILTIATAFLGYCCVYG [COB],1.66 ± 0.098
19,FISELCSIEPIAAKLIN [YML103C/NUP188],1.41 ± 0.033
20,FITKHLPLLILENSSRS [NUT1],1.36 ± 0.098
21,FKATIQILQGICKNCSA [RPO31],1.69 ± 0.044
22,FKCQEKDKGVYVVTSDE [SIR2],2.94 ± 0.076
23,FKDVEHISFNFSMLQMA [BRR2],1.76 ± 0.076
24,FKGLETPLKARQREMAE [YLR018C/POM34],3.27 ± 0.1
25,FKKQMQTIMKMGPLSNI [SRP54],2.59 ± 0.11
26,FKLFNKYRPETAAEKKE [RPL8A],2.56 ± 0.079
